The target of one assay is T1, Aβ1-42 peptide (Homo sapiens, UniProt P05067).
T1 construct: the Aβ1-42 peptide diluted to 40 μM using 20 mM phosphate buffer
Description: Experiment of inhibition of amyloid β (Aβ1-42) fibrillogenesis, thioflavine T fluorescence. It is filed as biochemical. Conditions: peptide 1.65, 16.5, 33 nM added to 40 μM Aβ1-42 in 20 mM phosphate buffer pH 7.0; 0, 6, 24 hours; thioflavine T fluorescence 482 nm (FIG. 8). The method, then:
Examples of a method for examining whether or not the obtained peptide has an activity of inhibiting amyloid β fibrillogenesis include the thioflavine T (ThT) method (H. Levine, III, Protein Science […]: 404-410 (1993)).
The synthesized peptide (TAT-B6-L1, B6-L1-TAT, TAT-B7-C15, or TAT-B7-S15) was added at varying concentrations (1.65 nM, 16.5 nM, and 33 nM) to the Aβ1-42 peptide diluted to 40 μM using 20 mM phosphate buffer, pH 7.0. At 0, 6, and 24 hours later, 10 μl of a sample was collected. After addition of 90 μl of 11 μM thioflavine T (Sigma)/phosphate buffer, fluorescence intensity at 482 nm generated by excitation light at 450 nm was measured using a multilabel plate counter Wallac 1420 ARVO sx (Perkin-Elmer; Wellesley, Mass.).
Results of measuring an activity of inhibiting Aβ1-42 fibrillogenesis by fusion peptides of TAT and B6-L1, B7-C15, or B7-S15 are shown in FIG. 8. The experiment of inhibition of fibrillogenesis was conducted according to the procedures described in the experiment of inhibition of fibrillogenesis above.

The next assay has as its system B6 scFv. Briefly: ELISA: binding of B6 scFv to plate-coated synthesized TAT fusion peptide. The following applies: peptide coated 200 ng/well; B6 scFv at varying concentrations (FIG. 7). Set-up: species or system human. The source says:
The B6-L1, B7-C15, and B7-S15 sequences having the TAT sequence fused at the amino terminus are referred to as TAT-B6-L1, TAT-B7-C15, and TAT-B7-S15, respectively. The B6-L1 sequence having the TAT sequence fused at the carboxyl terminus is referred to as B6-L1-TAT. The TAT sequence is a peptide sequence having the function of passing through the blood-brain barrier (P. Jarver and Ulo Langel, The use of cell-penetrating peptides as a tool for gene regulation, DDT, 9: 395-402, 2004). These peptides were biotinylated at their amino termini. Binding of the peptides was quantified using avidin labeled with an enzyme.
(5) The fusion peptide of TAT and B6-L1 was recognized by B6 scFv (FIG. 7). An ELISA plate was coated with the synthesized peptide TAT-B6-L1 or B6-L1-TAT under conditions of 200 ng/well. After addition of B6 scFv at varying concentrations, its binding activity was studied. A control peptide used was an unrelated peptide (GSGGGSCGYWRSEWGLCG (SEQ ID NO: 34)). […] (6) Activity of Inhibiting Aβ1-42 Fibrillogenesis by Fusion Peptide of TAT and B6-L1, B7-C15, or B7-S15
For orientation: ELISA stands for enzyme-linked immunosorbent assay.

The target in assay [1] is T2, Aβ oligomer or Aβ fibers (Aβ1-42) (Homo sapiens, UniProt P05067).
T2 construct: the Aβ1-42 peptide diluted to 40 μM using 20 mM phosphate buffer
T2 sequence (P05067 672-713 limits assumed): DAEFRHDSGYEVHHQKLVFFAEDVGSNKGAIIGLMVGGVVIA
Description: Experiment of precipitation of Aβ conformers (Aβ oligomer and Aβ fibers) by biotinylated peptide with streptavidin-magnet beads, Western blot. The following applies: Aβ1-42 40 μM, 1.5 hours after dissolution, peptide 1:1, supernatant vs pellet (FIG. 9). It is filed as binding. The method, then:
Aβ1-42 was dissolved at a concentration of 40 μM in 20 mM phosphate buffer, pH 7.0. At 1.5 hours later, the solution was reacted at 37° C. for 1 hour by the addition of the TAT-B6-L1 or TAT-B7-C15 peptide adjusted to 40 μM at a ratio of 1:1 by liquid volume (final concentration: Aβ [20 μM]/synthesized peptide [20 μM]). After reaction, an aliquot thereof was sampled as a sample before immunoprecipitation (“Before precipitation”), and the remaining sample was reacted with M-280 streptavidin-magnet beads (Dynal Biotech, Oslo, Norway) adjusted to 20 μg/μl on ice for 1 hour at a ratio of 1:1 by liquid volume (final concentration: Aβ [10 μM]/synthesized peptide [10 μM]/beads [10 μg/μl]). After reaction, the beads were precipitated using a magnet to obtain “Supernatant”. To the precipitated beads, PBS was added in a liquid volume equal to the collected supernatant to obtain “Pellet”. Each obtained sample was electrophoresed and subjected to Western blot analysis using anti-Aβ antibodies.
Aβ1-42 was dissolved at a concentration of 40 μM in 20 mM phosphate buffer, pH 7.0. At 1.5 hours later, the biotinylated TAT-B6-L1 or TAT-B7-C15 peptide was added thereto, and the conjugates were precipitated using streptavidin-magnet beads. Bands derived from Aβ oligomer, Aβ fibers, etc., could be confirmed before precipitation. Aβ oligomer or Aβ fibers were not confirmed in the supernatant from precipitation using the TAT-B6-L1 or TAT-B7-C15 peptide but could be confirmed in the pellet.
On the technique in general: Immunoblotting shows a protein as a band on a membrane.

No end group written: not given here. *: point of attachment. Biotin = O=C1N[C@H]2[C@H](CS[C@H]2CCCCC(=O)*)N1

T1 sequence (P05067 672-713 limits assumed): as above
B6 scFv, sequence (as listed by the source): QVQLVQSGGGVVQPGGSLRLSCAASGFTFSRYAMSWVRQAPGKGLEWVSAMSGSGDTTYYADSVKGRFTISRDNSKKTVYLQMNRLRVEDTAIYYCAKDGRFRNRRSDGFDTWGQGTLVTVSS
B6 scFv, sequence (as listed by the source): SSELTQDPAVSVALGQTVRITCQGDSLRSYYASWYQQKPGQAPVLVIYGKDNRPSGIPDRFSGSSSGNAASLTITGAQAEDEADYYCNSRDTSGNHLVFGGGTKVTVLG

With “B6-L1-TAT: B6-L1 sequence having the TAT sequence fused at the carboxyl terminus; SEQ ID NO: 25 (Biotin-GMLDIFAPIRHVYGRKKRRQRRR)”, the “activity of inhibiting Aβ1-42 fibrillogenesis” value in the assay with Aβ1-42 peptide is “demonstrated to have the activity of inhibiting fibrillogenesis”. Further, the “binding of B6 scFv to the coated peptide” value in the assay with B6 scFv is “Binding reaction dependent on the amount of B6 scFv was confirmed”.
With “GSGGGSCGYWRSEWGLCG [control peptide, reference compound]”, the “activity of inhibiting Aβ1-42 fibrillogenesis” value with Aβ1-42 peptide is listed as “exhibited no inhibiting activity”. For the same substance, the “binding/precipitation of Aβ oligomer or Aβ fibers by the peptide” value (from here on “binding/precipitation”) in assay [1] is given as “no confirmed precipitation reaction”.
In the case of “TAT-B6-L1: B6-L1 sequence having the TAT sequence fused at the amino terminus; SEQ ID NO: 24 (Biotin-YGRKKRRQRRRGMLDIFAPIRHV)”, in the assay with Aβ1-42 peptide, the “activity of inhibiting Aβ1-42 fibrillogenesis” value is “demonstrated to have the activity of inhibiting fibrillogenesis”. In addition, the “binding of B6 scFv to the coated peptide” value in the assay on B6 scFv is recorded as “Binding reaction dependent on the amount of B6 scFv was confirmed”. The “binding/precipitation” value in assay [1] is listed as “Aβ oligomer or Aβ fibers formed on 1.5 hours after dissolution of Aβ1-42 bind to the TAT-B6-L1 or TAT-B7-C15 peptide”.
As to “TAT-B7-C15: B7-C15 sequence (glycine added to carboxyl terminus) having the TAT sequence fused at the amino terminus; SEQ ID NO: 26 (Biotin-YGRKKRRQRRRCYGTKPWMCG; cysteine pairing not given here)”, the “activity of inhibiting Aβ1-42 fibrillogenesis” value with Aβ1-42 peptide is “demonstrated to have the activity of inhibiting fibrillogenesis”. Further, the “binding/precipitation” value in assay [1] is given as “Aβ oligomer or Aβ fibers formed on 1.5 hours after dissolution of Aβ1-42 bind to the TAT-B6-L1 or TAT-B7-C15 peptide”.
Take “TAT-B7-S15: B7-S15 sequence having the TAT sequence fused at the amino terminus; SEQ ID NO: 27 (Biotin-YGRKKRRQRRRSYGTKPWMSG)”: in the assay with Aβ1-42 peptide, the “activity of inhibiting Aβ1-42 fibrillogenesis” value was “demonstrated to have the activity of inhibiting fibrillogenesis”.

The values above are taken from patent US8697651B2, “Amyloid β fibrillogenesis-inhibiting peptide” (Kagoshima University, priority 2006, dated 2014).
